This is an account of results in the DeepSol protein solubility set.

The nature of this data set: soluble on expression in E. coli; label from the status in PepcDB or PDB records.
Turning to “MGSDKIHHHHHHMRIAQVAPLWERVPPPAYGGIELVVGLLTDELVRRGHEVTLFASGDSISLAKLVSVHPRALRLDRTIKDYSVYETLNLASAYERAEEFDIIHSHIGHGALAYANLVTTPTVHTLHGIFTSDNEKMFSFGKKQPYVSISDAQREPRLGLNCIATVYNGIDVSSYNFHAQPEDPPYLAFLGRMSPEKGAHLAIEIAKQAGWCLKMAGKVDVVDVEYFEKEIKPHIDGEQIQYLGEANHAQKNALMGGAFATLFPITWREPFGLVMVESMASGTPVIAMNLGSTEEVISHGKTGFLCNNLQECISAVDRVIELDRYTCRQYVEDLFSVEQMTDGYEAVYQKIIAERFSRNGHSRNLIALSSDRI”, the “soluble on expression in E. coli” value was “not soluble”. The result for “MGLFDRIKRVVSANLNDLVNKAEDPEKMLEQAILEMQEDLVQLRQGVAQAIAAQKRTEKQYSDAQNEINKWQRNAQLALQKGDENLARQALERKKTYTETGTALKTSLDQQSTQVETLKRNLIQLESKISEAKTKKEMLKARITTAKAQEQLEGMVRGMNSSSAMAAFERMEEKVLMQEARAQSAAELAGADLETQFARLESGSDVDDELAALKASLAPAPEQNLLPPQQQEQQSTAPKSKEVVDSELDALRKQLDQL” reads “not soluble”; that for “MLSQLPLFAGGEIVRGFGRGSKELGIPTANFPLEVVKSLPESLPTGAYYGWANVDNGPVHKMVLSIGWNPFYNNKEKSVETHMLHDFNCDLYGQTLKICIVGYLRPERSFDSLESLIAAIRGDIEQAKAFLDEADKAKLKEAPFFTEKLCSSKLEHHHHHH”, “not soluble”; that for “MSLEWCKNRLEITGRSVFVDIMQQWVTGEEVPLYRHAIQQSIRLFLAGCAGILKPVKCMEYPPFPRLVSHGTGSAVASNLAFQHWLDLLLKDAVLDGDTIRQIDRIYLQSGIASVKWETIPEGARQIITQLMARQYPDWFGVASWSSHINGADCWTKLGVMQEHACNCDMLMIIPTRLAIELNGNSQLLTGVSTTHDLYSHLYGMAWPSGQNIIWQRDRINSLRLDFDSPSYPPSAELMGELSAVFDCEIRHWYQEPVNGIRGYDCYDRGDHVDSGEYGAGPFLPPLKVEEVTVNGQEEAAEGHHHHHH”, “soluble”. Turning to “MIPRPIPEPSPDLYTEEEVSKLVHEFYAKARKDAALGPIFEEHVIDWDAHFVQMTNFWSAQLRGTSRFRGAPMPKHIALPELNETLFKRWLQLFRQTTLELGNPLLKQHADTVAEFIAGRLWMGYQMSHFPHREPADLNTSEV”, the “soluble on expression in E. coli” value is reported as “not soluble”.

For the sequence “MQDLPPCPKCNDAYTYHDGTQLICPSCLYEWNENEVNDEELIVKDCHNNLLQNGDSVILIKDLKVKNSSLVLKKGTKIKNTKLVNSDHNVDCKIEGQSLSLKSEFLKKA”, the “soluble on expression in E. coli” value is listed as “not soluble”. Regarding “MAYVKERIYESMFIIAPNVPEEERENLVERVKKIIEERVKGKIDKVERMGMRKFAYEIKKFNEGDYTVIYFRCDGQNLQELENFYRVTPEIIRWQTFRRFDLEKKERKAQREKAAAEATESSEGGSED”, the “soluble on expression in E. coli” value is “not soluble”.

For “MILSVTFSPSEVPLAGAIASISSIKIIAGAACLAFLKISLILFSLSPTHLLNTSGPLTAMKLASLSVATALAKRVLPVPGGPYNKTPLGGVIPSFLNALGYFSGHSTASLSSCFTSSNPPMSSQWTFGTSMRTSLKAEGSTIFKASLEHHHHHH”, the “soluble on expression in E. coli” value was “not soluble”. For “MPTNNAPQVAINDIGSAEDFLAAIDATIKYFNDGDIVEGTVVKVDRDEVLLDIGYKTEGVIPSRELSIKHDVDPDEVVEVGDQIDALVLTKEDKEGRLILSKKRAQYERAWGAIEELKEKDEPVTGTVIEVVKGGLIIDIGLRGFLPASLVEMRRVRDLDPYIGQELEAKIIELDKNRNNVVLSRRAFLEQTQSEVRSEFLHQLQKGQVRKGVVSSIVNFGAFVDLGGVDGLVHVSELSWKHIDHPSEVVTVGDEVTVEVLEVDLDRERVSLSLKATQEDPWRVFARTHAVGQIVPGKVTKLVPFGAFVRVEEGIEGLVHISELAQRHVEVPDQVVAVGEEVMVKVIDIDLERRRISLSLKQADEDYTEEFDPSKYGMADSYDEQGNYIFPEGFDAETNEWLEGFDEQRQAWEARYAESERRFTAHTAQIERRRQQAEEAAAEAPAGNYSTDSAEDAPAAEAVEESAGSLASDEQLAALREKLAGNLEHHHHHH”, the “soluble on expression in E. coli” value was “soluble”. As for “MAAKPKLYYFNGRGRMESIRWLLAAAGVEFEEEFLETREQYEKMQKDGHLLFGQVPLVEIDGMMLTQTRAILSYLAAKYNLYGKDLKERVRIDMYADGTQDLMMMIAVAPFKTPKEKEESYDLILSRAKTRYFPVFEKILKDHGEAFLVGNQLSWADIQLLEAILMVEELSAPVLSDFPLLQAFKTRISNIPTIKKFLQPGSQRKPPPDGPYVEVVRIVLKF”, the “soluble on expression in E. coli” value is “soluble”. Take “MIFKQNQNYWAVFDANKETLIVQTCSGLGLTAIDHLYPPHILPLDTDNETLGTTVLQALANSRTFVYDSPEDQDFFDTEKIRQRYEDWVAKLCGNLGYKTRRALFKNMMSVDIWLHNGCLKISPSRHVKLEAWNAIDADDVILSLDNSPEEIGAGLKLALSHCR”: the “soluble on expression in E. coli” value is listed as “not soluble”. Consider “MELRNTKLEQLFYIYHRNLKYRCPMQYLTKRGFNLQDLLSVGGGLAYLGEKQWLNLSLYNFNNQLVGFLSRKVGFEKKFLYLPINKPPSKSESFLGLKHLPTET”, for which the “soluble on expression in E. coli” value is listed as “not soluble”.

Regarding “MGSDKIHHHHHHMRINHNISALNAWRNISQTQYSMSKTLERLSSGLRINRAGDDAAGLAISEKMRGQIKGLNMAIKNAQDAISLIQTAEGALTEVHSILQRMRELAVQAASDTNTDVDREQIQKEIDQLREEIDRIARTTEFNTKKLLDGKLESFRSQVDAKVVTGGNINVQLGSVSSAAVEGTYVIEVGQFNGAETSELDVKITLFTAGGYSTTVVTITVGSATVGNINFTWDTDVLSINDFGGALPKNEVVDSAVVRVEAIYTSASQLIFQIGANEGHNMVAGIDDMSAAALGLTTVSLDVTTQDAAERAIMVVDAAIHRVSTARAALGAVQNRLEHTISNLGVAAENLTAAESRIRDADMAKEMMEFTKQQILLQSSMAMLAQSNTLPQNVLQLMR”, the “soluble on expression in E. coli” value is “not soluble”. The result for “HSEEAAYYAVEIGRMFDLGDEKLEKLYWAGLLHDIGKIYVPQVVLNKTSKLDEREFELIKIHPVRGYELVKEIEGFEDVAIWIRHHHERWDGKGYPDGLKGEEIPFEARVLCVADSYQAM” reads “soluble”; that for “MAHHHHHHMTLGPTTRVTVNVTGTVTVPLHLNALESLDDAPLQEEIMREAVRLSLAEQLGGFDNFTVTSARKGGNHVCEARLDVGDLCSIIADVKNAYEHGERRLRELQQLITAIREQLKESGREGGSEDEDITVPGIVKVVSDMVEDALRGPGESSLSAAIREVSNDKSWLEEVPVGDRSGGAASKSDEDSPSGVGYTRLPDSGEDSNGSERQLE”, “soluble”. On to “SASRGKTETSKLKQNLEEQLDRLMQQLQDLEECREELDTDEYEETKKETLEQLSEFNDSLKKIMSGNMTLVDELSGMQLAIQAAISQAFKTPEVIRLFAKKQPGQLRTRLAEMDRDLMVGKLERDLYTQQKVEILTALRKLGEKLTADDEAFLSANAGAILSQFEKVSTDLGSGDKILALASFEVEKTKK”, for which the “soluble on expression in E. coli” value is listed as “soluble”. On to “MNFKESRAIYLQIADRICDDILLGQYEEEGRIPSVREYASIVEVNANTVMRSYEYLQSQEVIYNKRGIGFFVASGAKMLIHSLRKEQFLKEEVGSFFRQLYTLGISIKEIEKMYYEFIQRQNQ”, for which the “soluble on expression in E. coli” value is listed as “soluble”. For “MIEDYALIGDMQIAALVCQDGTVDWLCLPRFDSHAVFAGLLGTEEHGFWRLGPAHASDAEPPRASRRTYRGDSLILESEWDTPRGTVRVTDFMPPRDGAPQLIRIVEGVTGRVPMRSALEHHHHHH”, the “soluble on expression in E. coli” value is “soluble”. For the sequence “SPMANSGPLCCTICHERLEDTHFVQCPSVPSHKFCFPCSRESIKAQGATGEVYCPSGEKCPLVGSNVPWAFMQGEIATIL”, the “soluble on expression in E. coli” value is on record as “soluble”. The result for “MVSCQGTRPCIVNLLTMPSEDKLGEEISTRVINEYSKLKSACRPIIRPSGIREWTILAGVAAINRDGGANKIEILSIATGVKALPDSELQRSEGKILHDCHAEILALRGANTVLLNRIQNYNPSSGDKFIQHNDEIPARFNLKENWELALYISRLPCGDASMSFLNDNCKNDDFIKIEDSDEFQYVDRSVKTILRGRLNFNRRNVVRTKPGRYDSNITLSKSCSDKLLMKQRSSVLNCLNYELFEKPVFLKYIVIPNLEDETKHHLEQSFHTRLPNLDNEIKFLNCLKPFYDDKLDEEDVPGLMCSVKLFMDDFSTEEAILNGVRNGFYTKSSKPLRKHCQSQVSRFAQWELFKKIRPEYEGISYLEFKSRQKKRSQLIIAIKNILSPDGWIPTRTDDVK” reads “not soluble”; that for “MIETEKKEERVLLIGVELQGMDSFDLSMEELASLAKTAGAVVVDSYRQKREKYDSKTFVGSGKLEEIALMVDAEEITTVIVNNRLTPRQNVNLEEVLGVKVIDRMQLILDIFAMRARSHEGKLQVHLAQLKYLLPRLVGQGIMLSRQAGGIGSRGPGESQLELNRRSVRNQITDIERQLKVVEKNRATVREKRLESSTFKIGLIGYTNAGKSTIMNILTSKTQYEADELFATLDATTKSIHLGGNLQVTLTDTVGFIQDLPTELVSSFKSTLEESKHVDLLVHVIDASNPYHEEHEKTVLSIMKDLDMEDIPHLTLYNKADLVEDFTPTQTPYTLISAKSEDSRENLQALLLDKIKEIFEAFTLRVPFSKSYKIHDLESVAILEERDYQEDGEVITGYISEKNKWRLEEFYDLEHHHHHH”, “not soluble”. As for “MGSDKIHHHHHHMIAEPFLFRSEGGFIRIPIWGHIPLSAPLKKILAHPSFLRLKGIRQLSFAQQVYPGANHTRFEHSIGVYHLMKMILQRMVSNPLALELQDERLQFDDETCRTLLATCLLHDIGHYPHAHVLEEITPAGDSSAVFAHHESLTGQFLNEEHRDTPSIAAILHDDWQVNPDTVTEIIAGKTAHRLGKLVSGTLDPDKMDYLMRDAHHCNIPYGSIDIERLIESFVPDPERQRLAITEKGIAPLESLLFAKYMMMRNVYWHHTSRTFSTMLRRLLQDVADESALPMETLRELFYFNSDDRVLFELERAIRGLGLPAAELLDAILERRVYKRAMTIRPYHEPSMEIDPVWFAYNTSHRRRKEKELEICAMLAGKTGKRLAGHEVLIDAPPSKDVFDYSDFRELRIWPTKSEHRHLVQPTDSNGYVRFDDFRESVFGSDFILSFEQYTKKFRLLCRHDLVDTLSGLEEAVVEILRR”, the “soluble on expression in E. coli” value is given as “not soluble”. The result for “MRGSHHHHHHGSDLGKKLLEAARAGQDDEVRILMANGADVNAEDTYGDTPLHLAARVGHLEIVEVLLKNGADVNALDFSGSTPLHLAAKRGHLEIVEVLLKYGADVNADDTIGSTPLHLAADTGHLEIVEVLLKYGADVNAQDKFGKTAFDISIDNGNEDLAEILQ” reads “soluble”; that for “MVADVNLKTGEVGTRIAEINSNSDKRYVQRIIDEPKFSLMANLALSDADKSSTVVHFKASVRKGEKNLTNCIRDGLQEHFGKKIVSLAGQFIIQTGKARLHVMPDFPGCPFENNAEVDKWLNYFEMSAPLICATVMHSYDPGHNLRLEHTHCYSDHGDAGHYHYDVTPETVSYEGWFAPASKIYRIDEIKNR”, “not soluble”. With “MAHHHHHHMADSYENDEDVLQMIQQIKKITKESKRKFENEIDYLVEDTKTNLLTHVDDEKNCIKKEAEEKLNSYRENLIKYEKGINEKRRHYLKLKAELATVVNNYKKRMKVGPACTCVERFTCACGEVYTRVEVYTLVKLHTLVKPPTRLLSPQDFNQETENFKQTYEREKKELEDLEDREWSELNTHCVELLSKTKSNICATKNETNKKLRKVLNSIM”, the “soluble on expression in E. coli” value is “not soluble”.
